Measurements as given in publication PMC3663513.

Target: Pseudo-nitzschia multiseries ferritin (Pseudo-nitzschia multiseries)
Test: crystal structure; crystals of PmFTN grown by vapor diffusion (0.1 M sodium acetate pH 5.5, ammonium sulfate, NaCl), aerobic or anaerobic, soaked in 2 mM Fe(II) or 2 mM zinc sulfate; 24-mer shell built from 8 (P23) or 6 (P42(1)2) subunits in the asymmetric unit

## Pseudo-nitzschia multiseries ferritin (natural protein)
  stoichiometry N: 24 subunits
